The text below walks through data of paper PMC6797848, “A TBR1-K228E Mutation Induces Tbr1 Upregulation, Altered Cortical Distribution of Interneurons, Increased Inhibitory Synaptic Transmission, and Autistic-Like Behavioral Deficits in Mice”.

Settings in all cases: protein: recombinant; tags: N-terminal His6 removed by thrombin (pET28a, NdeI/HindIII); label: 5'-biotin on strand 1
Series [1] deals with T1, TBR1 T-box domain K228E (human, UniProt Q16650 200-400, K228E).
T1 sequence: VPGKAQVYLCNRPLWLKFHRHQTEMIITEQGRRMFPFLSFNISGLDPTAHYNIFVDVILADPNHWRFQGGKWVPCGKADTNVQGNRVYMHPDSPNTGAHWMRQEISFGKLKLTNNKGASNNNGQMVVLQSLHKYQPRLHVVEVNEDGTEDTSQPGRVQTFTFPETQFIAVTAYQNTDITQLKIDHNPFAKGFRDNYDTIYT
In words: BLI; n=3; Kd only plotted in figure; BLI (BLITZ, streptavidin sensor): kinetic buffer 20 mM HEPES pH 7.5, 100 mM NaCl, 25 C (stated for sensor hydration/equilibration); protein stock in 20 mM HEPES pH 7.5, 150 mM NaCl, 5 mM MgCl2. On the technique in general: BLI is a label-free optical method that tracks binding on a fibre tip over time.

Series [2] addresses T2, TBR1 T-box domain N374H (human, UniProt Q16650 200-400, N374H).
T2 sequence: T1 sequence with E29K, N175H
As to the kind of experiment: BLI; n=3; stated as no effect on affinity; Kd only plotted in figure; BLI (BLITZ, streptavidin sensor): kinetic buffer 20 mM HEPES pH 7.5, 100 mM NaCl, 25 C (stated for sensor hydration/equilibration); protein stock in 20 mM HEPES pH 7.5, 150 mM NaCl, 5 mM MgCl2.

Series [3] concerns the target T3, TBR1 T-box domain WT (hTBR1DBD) (human, UniProt Q16650 200-400).
T3 sequence: T1 sequence with E29K
In words: BLI; protein 2.5-10 uM; Kd only plotted in figure; BLI (BLITZ, streptavidin sensor): kinetic buffer 20 mM HEPES pH 7.5, 100 mM NaCl, 25 C (stated for sensor hydration/equilibration); protein stock in 20 mM HEPES pH 7.5, 150 mM NaCl, 5 mM MgCl2.

Where a chain is given by its changes, count along the chain named.

B1: Grin2b-promoter probe (dsDNA)
DNA 1: TATATAGGTTGAGTGGCACGTTCCTGGGTGTGAGACC
DNA 2: GGTCTCACACCCAGGAACGTGCCACTCAA
As to B1, the binding signal is roughly 3 fold increase in Kd vs WT in series [1] and roughly 1 fold Kd vs WT in series [2]. In series [3], the binding result was “binds”.
